Assay results published in PMC3716654, “The UmuC subunit of the E. coli DNA polymerase V shows a unique interaction with the β-clamp processivity factor” (BMC Structural Biology, 2013).
Where no end group is shown, it is not given here. Dylight649 = Dylight649 fluorophore attached through the cysteine

Biological target: T1, E. coli β-clamp processivity factor (E. coli, UniProt P0A988 1-366)
T1 construct: DNA polymerase III β subunit (β sliding clamp, dnaN), E. coli, full length, from plasmid pACYC11-dnaN; residues up to Leu-366 are named; The last residue of the hexa-histidine tag is modelled in both subunits; also called sliding clamp; not shown: His6, N-terminal, kept
T1 sequence (P0A988 whole entry): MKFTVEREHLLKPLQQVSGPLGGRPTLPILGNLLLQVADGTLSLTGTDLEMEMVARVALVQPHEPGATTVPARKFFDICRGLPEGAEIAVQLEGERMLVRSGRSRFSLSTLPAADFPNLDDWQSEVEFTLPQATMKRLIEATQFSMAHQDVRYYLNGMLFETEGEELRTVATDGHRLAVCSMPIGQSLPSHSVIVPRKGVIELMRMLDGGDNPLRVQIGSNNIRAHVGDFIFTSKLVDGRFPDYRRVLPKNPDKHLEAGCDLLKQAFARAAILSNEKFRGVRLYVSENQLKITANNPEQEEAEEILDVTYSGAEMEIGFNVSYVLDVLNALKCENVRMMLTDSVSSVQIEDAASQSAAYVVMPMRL
Assay: crystal structure; β-clamp/Dylight649-UmuC peptide complex purified by SEC, 15 mg/ml; crystallised in 200 mM calcium acetate, 200 mM MES pH 6.5, 14% PEG 6000, sitting drop, 12°C; 2.5 Å
Conditions: both partners purified

binding result: binds
B1: Dylight649-UmuC synthetic peptide (Dylight649-C-QGVAQLNLFDD) (peptide)
peptide: C(Dylight649)QGVAQLNLFDD
notes: cysteine added to permit linkage of the chromophore; not a UmuC residue; 12-mer including the added N-terminal cysteine; Only 356-361 (chain D) and 357-361 (chain C) are ordered in the structure; also called Dylight649-Pol V synthetic peptide; UmuC peptide; source: synthetic peptide (Cambridge Peptides)
